Source: patent publication US20200255529A1 (PIONYR IMMUNOTHERAPEUTICS, published 2020)
Where two headings read alike, the source gives them in different places.

T1: cynomolgus TREM1 on cells (cynomolgus, UniProt A0A2K5VHG8 21-233)
T1 construct: whole, on cells; Used for HEK293 cells over-expressing cynomolgus TREM1 and for primary cynomolgus monocytes; also called cynoTREM1; Cyno TREM1 cells
T1 sequence: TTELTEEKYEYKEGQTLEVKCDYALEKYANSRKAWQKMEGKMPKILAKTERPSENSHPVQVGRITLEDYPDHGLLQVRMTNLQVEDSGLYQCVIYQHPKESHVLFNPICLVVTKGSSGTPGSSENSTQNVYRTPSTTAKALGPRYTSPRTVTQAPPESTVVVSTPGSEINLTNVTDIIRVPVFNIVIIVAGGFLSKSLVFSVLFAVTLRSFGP

T2: Chimeric cynomolgus TREM1-mIgG Fc (cynomolgus, UniProt A0A2K5VHG8 21-204)
T2 construct: not shown: mouse IgG Fc
T2 sequence: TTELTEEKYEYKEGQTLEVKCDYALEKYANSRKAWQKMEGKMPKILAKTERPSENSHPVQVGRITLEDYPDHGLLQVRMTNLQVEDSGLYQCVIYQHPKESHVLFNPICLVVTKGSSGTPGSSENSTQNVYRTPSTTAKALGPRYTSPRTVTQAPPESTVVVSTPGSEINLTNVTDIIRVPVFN

T3: mouse TREM1 on HEK293 cells (mouse, UniProt Q9JKE2 21-230)
T3 construct: also called mTREM1; mouse TREM1 over-expressing cells
T3 sequence: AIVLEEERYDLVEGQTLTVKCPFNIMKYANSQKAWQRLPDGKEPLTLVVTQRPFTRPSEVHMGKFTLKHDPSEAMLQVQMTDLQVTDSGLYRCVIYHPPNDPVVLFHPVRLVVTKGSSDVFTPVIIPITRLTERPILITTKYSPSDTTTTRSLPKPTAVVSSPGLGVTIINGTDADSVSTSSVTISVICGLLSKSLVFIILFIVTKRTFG

T4: Fc-tagged recombinant mouse TREM1 (R&D systems #1187-TR) (mouse, UniProt Q9JKE2 21-202)
T4 construct: Bought reagent; not shown: Fc tag
T4 sequence: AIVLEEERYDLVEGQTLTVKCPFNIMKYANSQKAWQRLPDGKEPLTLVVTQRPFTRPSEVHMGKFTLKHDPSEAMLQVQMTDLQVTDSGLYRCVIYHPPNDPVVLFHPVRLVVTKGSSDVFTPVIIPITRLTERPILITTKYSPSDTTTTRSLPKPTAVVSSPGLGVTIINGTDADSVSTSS

B1: afucosylated PI-4026-5-M100 (parent) (antibody, human IgG1, kappa)
heavy: not shown
light: DIQLTQSPSSLSASVGDRVTITCSASSSVSYMHWYQQKPGKAPKLLLYTTSNLASGVPSRFSGSGSGTDYTLTISSLQPEDFATYYCHQWSGYPTFGQGTKLEIKRTVAAPSVFIFPPSDEQLKSGTASVVCLLNNFYPREAKVQWKVDNALQSGNSQESVTEQDSKDSTYSLSSTLTLSKADYEKHKVYACEVTHQGLSSPVTKSFNRGEC
modifications: afucosylated Fc glycan (made in FUT8-deficient expi293 cells)
B2: PI-4026-5 (antibody, human IgG1, kappa)
heavy: not shown
light: B1 light
notes: fucosylated form made in expi293 cells
B3: PI64052 (afucosylated PI-4026-5-M100L) (antibody, human IgG1, kappa)
heavy: not shown
light: B1 light
modifications: afucosylated Fc glycan (made in FUT8-deficient expi293 cells)
B4: afucosylated PI-4026-5-M100I (antibody, human IgG1, kappa)
heavy: not shown
light: B1 light
modifications: afucosylated Fc glycan (made in FUT8-deficient expi293 cells)
B5: PI-4026-5-M100I (fucosylated) (antibody, human IgG1, kappa)
heavy: not shown
light: B1 light
B6: PI64062 (afucosylated PI-4026-5-M100Q) (antibody, human IgG1, kappa)
heavy: not shown
light: B1 light
modifications: afucosylated Fc glycan (made in FUT8-deficient expi293 cells)
B7: PI-4026-5-M100L (fucosylated) (antibody, human IgG1, kappa)
heavy: not shown
light: B1 light
notes: hIgG1, fucosylated; also called fucosylated parent of PI64052
B8: PI-4026-5-M100E (fucosylated) (antibody, human IgG1, kappa)
heavy: not shown
light: B1 light
B9: afucosylated PI-4026-5-M100E (antibody, human IgG1, kappa)
heavy: not shown
light: B1 light
modifications: afucosylated Fc glycan (made in FUT8-deficient expi293 cells)
B10: PI-4026-5-M100Q (fucosylated) (antibody, human IgG1, kappa)
heavy: not shown
light: B1 light
notes: hIgG1, fucosylated; also called fucosylated parent of PI64062
B11: afucosylated PI-4928 anti-TREM1 antibody (antibody, mouse IgG2a, kappa, V domains shown)
VH: QVQLKESGPGLVQPSQTLSLTCTVSGFSITSSNVYWFRQPPGKGLEWMGNIWGDGSTDYNSSLKSRLTLSRDTSKNQVFLKINSLQSEDTATYFCTRSWEYYFDHWGQGVVVTVSS
VL: DIVLTQSPALAVSPGQRATLSCRASQSVTLSNVNLMNWYQQKPGQQPKLLIYHASNLASGIPTRFSGSGSGTDFTLTIDPVQADDIAAYYCQQSGESPRTFGGGTKVELKR
modifications: afucosylated
notes: Anti-mouse TREM1 surrogate, mIgG2a

Tests used:
[1] = target: T5, hCD16 on NFAT-luciferase reporter Jurkat cells (Promega) (human, UniProt P08637 17-254); assay: cell-based or functional assay
T5 sequence (P08637 17-254 F176V): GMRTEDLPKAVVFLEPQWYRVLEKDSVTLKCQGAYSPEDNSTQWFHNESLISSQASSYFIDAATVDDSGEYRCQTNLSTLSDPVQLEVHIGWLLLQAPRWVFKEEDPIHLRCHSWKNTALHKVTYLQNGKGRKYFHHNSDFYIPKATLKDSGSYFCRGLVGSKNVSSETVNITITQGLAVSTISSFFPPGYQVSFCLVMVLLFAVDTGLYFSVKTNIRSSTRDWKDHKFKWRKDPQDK

[2] = target: T1, cynomolgus TREM1 on cells; assay: flow cytometry on HEK293 cells over-expressing cynomolgus TREM1
[3] = target: T2, Chimeric cynomolgus TREM1-mIgG Fc; assay: SPR (Biacore T200), avid format: cynomolgus TREM1-mIgG Fc captured, antibody as analyte
Description: All data were collected at 25° C. 10 mM HEPES pH 7.4, 150 mM NaCl, 3 mM EDTA, 0.05% (v/V) surfactant P20 was used as mobile buffer and for all dilution of mAbs. Anti-mouse Fc was immobilized on a CM4 biosensor chip (GE Healthcare) using amine coupling chemistry. Chimeric cynomolgus TREM1-mIgG Fc was captured on one flow cell and another flow cell (used as reference surface) was left blank. […] After each cycle, the surface was regenerated by injecting a glycine HCl buffer (10 mM, pH 2.0). BIAevaluation software was used to perform the kinetic evaluation. Kinetic evaluation was through generation of sensorgrams which were fitted with a 1:1 Langmuir binding model.

[4] = target: T5, hCD16 on NFAT-luciferase reporter …; assay: cell-based or functional assay; remark: listed apart in the source
[5] = target: T1, cynomolgus TREM1 on cells; assay: flow cytometry on HEK293 cells over-expressing cynomolgus TREM1; remark: listed apart in the source
[6] = target: T3, mouse TREM1 on HEK293 cells; assay: flow cytometry on HEK293 cells over-expressing mouse TREM1, Alexa 647 anti-human Fcγ secondary antibody
Description: (§1) HEK293 over-expressing cynomolgus or mouse TREM1 in log phase growth were harvested from culture, washed, and plated in 96 well U bottom plates at 1×10⁵ cells/well. […] An Alexa 647-conjugated anti-human Fcγ secondary antibody (Jackson Immunoresearch) diluted at 1:500 was used to detect bound primary antibody. The secondary antibody was incubated with the cells for 30 mins on ice. […] Fluorescence signal from bound antibody was assessed by flow cytometry (ThermoFisher Attune NxT). EC50 values were calculated in Prism Software (Graphpad).

[7] = target: T5, hCD16 on NFAT-luciferase reporter …; assay: cell-based or functional assay; remark: listed apart in the source
[8] = target: T1, cynomolgus TREM1 on cells; assay: flow cytometry on cynomolgus peripheral blood monocytes, experiment 1
Description: (§2) Fresh cynomolgus monkey blood (Worldwide Primates Inc) was red cell lysed and washed to enrich PBMC and granulocyte content. Cells were plated and Fc receptors were blocked with a combination of human serum (Jackson Immunoresearch) and a peptide-based FcR block solution (Innovex Biosciences). […] All antibodies used were directly conjugated and data was acquired by flow cytometry (ThermoFisher Attune NxT). EC50 values were calculated in Prism Software (Graphpad).

[9] = target: T1, cynomolgus TREM1 on cells; assay: flow cytometry on cynomolgus peripheral blood monocytes, experiment 2
Description: as §2

[10] = target: T1, cynomolgus TREM1 on cells; assay: flow cytometry on HEK293 cells over-expressing cynomolgus TREM1, experiment 1
Description: as §1, with “HEK293 cells” for “HEK293”, “cynomolgus” for “cynomolgus or mouse”

[11] = target: T1, cynomolgus TREM1 on cells; assay: flow cytometry on HEK293 cells over-expressing cynomolgus TREM1, experiment 2
Description: as §1, with “HEK293 cells” for “HEK293”, “cynomolgus” for “cynomolgus or mouse”

[12] = target: T1, cynomolgus TREM1 on cells; assay: flow cytometry on HEK293 cells over-expressing cynomolgus TREM1, experiment 3
Description: as §1, with “HEK293 cells” for “HEK293”, “cynomolgus” for “cynomolgus or mouse”

[13] = target: T2, Chimeric cynomolgus TREM1-mIgG Fc; assay: SPR (Biacore T200), avid format: cynomolgus TREM1-mIgG Fc captured, antibody as analyte; remark: listed apart in the source
[14] = target: T6, recombinant human His-tagged FcγRI (human, UniProt P12314 16-288); assay: ELISA on plates coated with 1 ug/ml His-tagged human FcγRI (CD64), detection with HRP-conjugated anti-human F(ab')2
T6 construct: also called hFcγRI; not shown: His tag
T6 sequence (P12314 16-288 limits assumed): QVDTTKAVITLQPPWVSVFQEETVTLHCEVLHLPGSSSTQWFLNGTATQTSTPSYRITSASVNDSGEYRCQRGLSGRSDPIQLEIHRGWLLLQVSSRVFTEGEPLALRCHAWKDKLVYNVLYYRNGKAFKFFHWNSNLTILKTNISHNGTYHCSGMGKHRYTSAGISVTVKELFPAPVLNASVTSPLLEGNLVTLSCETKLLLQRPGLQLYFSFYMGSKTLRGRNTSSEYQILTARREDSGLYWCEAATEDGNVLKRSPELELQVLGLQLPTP
Description: 1 ug/ml of the indicated recombinant human His-tagged FcγR proteins (Sino Biologicals) were coated on MaxiSorp plates overnight at 4° c. […] Fc-mediated binding of the antibodies to the coated FcγR proteins was detected with a HRP-conjugated Fab′2 fragment against the Fab′2 portion of human IgG (Jackson Immunoresearch). TMB substrate (ThermoFisher) was used to quantitate the amount of HRP-conjugated secondary reagent bound to primary antibodies and H₃PO₄ was used to stop the reaction. Absorbance at 450 nm was measured using the Spectramax plate reader ([…]).

[15] = target: T1, cynomolgus TREM1 on cells; assay: flow cytometry on HEK293 cells over-expressing cynomolgus TREM1; cells overexpressing cynomolgus TREM1; EC50 about 6-fold weaker than parent (4.61 nM)
[16] = target: T1, cynomolgus TREM1 on cells; assay: flow cytometry on HEK293 cells over-expressing cynomolgus TREM1; cells overexpressing cynomolgus TREM1; EC50 about 12-fold weaker than parent (4.61 nM); background binding Y
[17] = target: T4, Fc-tagged recombinant mouse TREM1 (R&D …); assay: MSD ligand binding PK assay, plate coated with Fc-tagged recombinant mouse TREM1
Description: A 96-well high-binding MSD plate was coated with Fc-tagged recombinant mouse TREM1 (R&D systems #1187-TR). After blocking, samples were added to the plate which bound the TREM1 protein. […] ECL signal was produced by the secondary antibody after the plate received an electric signal from an MSD plate reader. The ECL signal was detected and quantified by the plate reader.

| Binder | hCD16 ADCC assay EC50 [1] [nM] | EC50 [2] [nM] | Kd [3] [nM] | hCD16 ADCC assay EC50 [4] [nM] | binding result [14] | further results |
| --- | --- | --- | --- | --- | --- | --- |
| B1 | 0.36 | 6.61 | 2.99 |  |  |  |
| B2 |  |  | 1.76 | 2.54 |  | EC50 [5]: 4.61 nM; binding result [6]: no binding (tested: 6 ug/ml) |
| B3 | 0.28 | 3.62 | 1.41 |  | binds | hCD16 reporter assay EC50 (nM), experiment 1 [7]: 0.09 nM; hCD16 reporter assay EC50 (nM), experiment 2 [7]: 0.28 nM; hCD16 reporter assay EC50 (nM), experiment 3 [7]: 0.11 nM; EC50 [8]: 7.84 nM; EC50 [9]: 7.16 nM; EC50 [10]: 3.62 nM; EC50 [11]: 4.67 nM; EC50 [12]: 42.8 nM; Kd [13]: 1.41 nM |
| B4 | 0.39 | 22 | 13.4 |  |  |  |
| B5 |  |  | 11.8 | 6.92 |  | EC50 [15]: 28.6 nM |
| B6 | 0.29 | 2.07 | 0.45 |  | binds | hCD16 reporter assay EC50 (nM), experiment 1 [7]: 0.08 nM; hCD16 reporter assay EC50 (nM), experiment 2 [7]: 0.29 nM; hCD16 reporter assay EC50 (nM), experiment 3 [7]: 0.09 nM; EC50 [8]: 7.94 nM; EC50 [9]: 7.84 nM; EC50 [10]: 2.07 nM; EC50 [11]: 3.25 nM; EC50 [12]: 7.89 nM; Kd [13]: 0.45 nM |
| B7 |  |  | 1.43 | 5.86 | binds | EC50 [5]: 4.85 nM |
| B8 |  |  | 6.19 | 3.18 |  | EC50 [16]: 58 nM |
| B9 | 0.33 | 56 | 8.66 |  |  |  |
| B10 |  |  | 0.66 | 8.6 | binds | EC50 [5]: 6.04 nM |
| B11 |  |  |  |  |  | binding result [17]: binds |
